B1: Zinc finger homeobox protein 4, residues 2562 to 2617; numbered along this chain, Q86UP3 (parent)
chain: RLRTTITPEQLEILYEKYLLDSNPTRKMLDHIAREVGLKKRVVQVWFQNTRARERK

± gives the uncertainty stated by the source.

In the data set the parent is B1. Briefly: abundance fitness (aPCA) (normalised: wild type 0, dead -1); higher = more abundant; growth selection in yeast, the domain comes from the species named. The following applies: Homo sapiens.
As to RLRTTITPEQLEILYEKYLLDSNPTRKMLDHIAREVGLKKRVVQVMFQNTRARERK, the abundance fitness was -0.815 ± 0.15.

RLRTTITPEQLEILYEKYLLDSNPTRKMLDHIAREVGLKKRVVQVSFQNTRARERK: the abundance fitness was -0.91 ± 0.11.

As to RLRTTITPEQLEILYEKYLLDSNPTRKMLDHIAREVGLYKRVVQVWFQNTRARERK, the abundance fitness was found to be 0.406 ± 0.14.

As to RLRTTITPEQLEILYEKYLLDHNPTRKMLDHIAREVGLKKRVVQVWFQNTRARERK, the abundance fitness was -0.289 ± 0.079.

For the variant RLRTTITPEQLEILYEKYLLDKNPTRKMLDHIAREVGLKKRVVQVWFQNTRARERK, the abundance fitness is -0.305 ± 0.12.

Turning to RLRTTITPEQLEILYEKYLLDYNPTRKMLDHIAREVGLKKRVVQVWFQNTRARERK, the abundance fitness was -0.772 ± 0.18.

With RLRTTITPGQLEILYEKYLLDSNPTRKMLDHIAREVGLKKRVVQVWFQNTRARERK, the abundance fitness was -0.159 ± 0.051.

On to RLRTTITPRQLEILYEKYLLDSNPTRKMLDHIAREVGLKKRVVQVWFQNTRARERK, for which the abundance fitness is -0.005 ± 0.054.

Turning to RLRTTITPEQLEILYEKYLLDSNPTRKMLDHIAREVGLKKRVDQVWFQNTRARERK, the abundance fitness was -0.778 ± 0.22.

Consider RLRTTITPEQLEILYEKYLLDSNPTRKMLDHIAREVGLKKRVWQVWFQNTRARERK, for which the abundance fitness was -0.78 ± 0.089.

For RLRTTITPEQLEILYEKYLLDSNPTRYMLDHIAREVGLKKRVVQVWFQNTRARERK, the abundance fitness is -0.142 ± 0.065.

As for RLRTTITPEQLEILYEKYLLDSNPTRRMLDHIAREVGLKKRVVQVWFQNTRARERK, the abundance fitness is -0.475 ± 0.062.

Regarding RLRTTITPEQLEILYEKYLLDSNPTRKMLDHIARELGLKKRVVQVWFQNTRARERK, the abundance fitness was -0.121 ± 0.085.

As for RLRTTITPEQLEILYEKYLLDSNPTRKMLDHIAREFGLKKRVVQVWFQNTRARERK, the abundance fitness was -0.623 ± 0.26.

In the case of RLRTTITPEQLEILTEKYLLDSNPTRKMLDHIAREVGLKKRVVQVWFQNTRARERK, the abundance fitness worked out at 0.067 ± 0.086.

For RLRTTITPEQLEILREKYLLDSNPTRKMLDHIAREVGLKKRVVQVWFQNTRARERK, the abundance fitness was determined as 0.161 ± 0.044.

Take RLRTTITPEQLEILYEKYLLDSNPTRKMLDHIAMEVGLKKRVVQVWFQNTRARERK: the abundance fitness was -0.053 ± 0.063.

Consider RLRTTITPEQLEILYEKYLLDSNPTRKMLDHIAYEVGLKKRVVQVWFQNTRARERK, for which the abundance fitness was 0.245 ± 0.12.

In the case of RLRTTITPEQLEILYEKYLLDSNDTRKMLDHIAREVGLKKRVVQVWFQNTRARERK, the abundance fitness is -0.679 ± 0.064.

RLRTTITPEQLEILYEKYLLDSNRTRKMLDHIAREVGLKKRVVQVWFQNTRARERK: the abundance fitness is -0.925 ± 0.07.

On to RLRTTITPEQLEILYEKYLLDSNHTRKMLDHIAREVGLKKRVVQVWFQNTRARERK, for which the abundance fitness was -0.847 ± 0.2.

For RLRTTITPEQLEILYEKYLLDSNGTRKMLDHIAREVGLKKRVVQVWFQNTRARERK, the abundance fitness was -0.852 ± 0.099.

Consider RERTTITPEQLEILYEKYLLDSNPTRKMLDHIAREVGLKKRVVQVWFQNTRARERK, for which the abundance fitness was found to be 0.429 ± 0.079.

Regarding RLRTTITPEQLEILYEKYLLDSNPTRKMLDHIAREVGLKKRVVQVWFQNTRARTRK, the abundance fitness is -0.737 ± 0.17.

In the case of RLRTTITMEQLEILYEKYLLDSNPTRKMLDHIAREVGLKKRVVQVWFQNTRARERK, the abundance fitness was -0.329 ± 0.2.

In the case of RLRTTITQEQLEILYEKYLLDSNPTRKMLDHIAREVGLKKRVVQVWFQNTRARERK, the abundance fitness was -0.232 ± 0.19.

In the case of RLRTTITPEQLEILYEKYLLDSNPTRKMLDHIARQVGLKKRVVQVWFQNTRARERK, the abundance fitness was -0.283 ± 0.12.

For the variant RLRTTITPEQLEILYEKYLLDSNPTRKMLDHIAREVGLKKRVVQVWFQNNRARERK, the abundance fitness was -0.127 ± 0.1.

Regarding RLRTTITPEQLEILYEKYLLDSNPTRKMLDHIAREVGLKKRVVQVWFQNLRARERK, the abundance fitness is -0.137 ± 0.071.

RLRTTITPEQLEILYEKYLLDSNPTRKMLDHIAREVGLKKRVVQVWFQNFRARERK: the abundance fitness is -0.069 ± 0.096.

RLRTEITPEQLEILYEKYLLDSNPTRKMLDHIAREVGLKKRVVQVWFQNTRARERK: the abundance fitness amounted to 0.141 ± 0.15.

Regarding RLRTMITPEQLEILYEKYLLDSNPTRKMLDHIAREVGLKKRVVQVWFQNTRARERK, the abundance fitness was -0.241 ± 0.29.

Regarding RLRTDITPEQLEILYEKYLLDSNPTRKMLDHIAREVGLKKRVVQVWFQNTRARERK, the abundance fitness amounted to 0.068 ± 0.23.

Consider RLRTVITPEQLEILYEKYLLDSNPTRKMLDHIAREVGLKKRVVQVWFQNTRARERK, for which the abundance fitness turned out to be 0.025 ± 0.084.

Take RLRTWITPEQLEILYEKYLLDSNPTRKMLDHIAREVGLKKRVVQVWFQNTRARERK: the abundance fitness is -0.397 ± 0.16.

On to RLRTTITPEQLEILYEKYLLDSNPTRKMLDHIAREVGLKKRHVQVWFQNTRARERK, for which the abundance fitness is -0.079 ± 0.13.

In the case of RLRTTITPEQLEILYEKYLLDSNPTRKMLDHIAREVGLKKRVVQVWFQNTRAHERK, the abundance fitness was determined as 0.104 ± 0.081.

For RLRTTITPEQLEILYEKYLLDSNPTRKMLDHIAREVGLKKRVVQVWFQNTRAMERK, the abundance fitness came out at 0.077 ± 0.079.

For RLRTTITPEQLEILYEKYLLDSNPTRKMLDHIAREVGLKKRVVQVWFQNTRAAERK, the abundance fitness is -0.014 ± 0.07.

For the variant RLRTTITPEQLEILYEKYLQDSNPTRKMLDHIAREVGLKKRVVQVWFQNTRARERK, the abundance fitness was -0.182 ± 0.072.

Turning to RLRTTITPEQLEILYEKYLRDSNPTRKMLDHIAREVGLKKRVVQVWFQNTRARERK, the abundance fitness is -0.162 ± 0.075.

For the variant RLRTTITPEQLEILYEKYLFDSNPTRKMLDHIAREVGLKKRVVQVWFQNTRARERK, the abundance fitness was -0.062 ± 0.082.

Regarding RLRTTITPEQLEILYEKYLGDSNPTRKMLDHIAREVGLKKRVVQVWFQNTRARERK, the abundance fitness was -0.114 ± 0.059.

Take RLRTTITPEQLEILYEKYLLDSNPTWKMLDHIAREVGLKKRVVQVWFQNTRARERK: the abundance fitness stood at 0.237 ± 0.1.

Turning to RLRTTITPEQLEILYEKYLLDSNPTLKMLDHIAREVGLKKRVVQVWFQNTRARERK, the abundance fitness came to 0.24 ± 0.065.

Regarding RLRTTITPEQLEILYEKYLLDSNPGRKMLDHIAREVGLKKRVVQVWFQNTRARERK, the abundance fitness is -0.331 ± 0.061.

Regarding RLRTTITPEQLEILYEKYLLDSNPTRKRLDHIAREVGLKKRVVQVWFQNTRARERK, the abundance fitness was -0.297 ± 0.074.

Values taken from the Human Domainome abundance scans (Beltran et al. 2025).
